Test results from patent US8088412B2, “Intralymphatic chemotherapy drug carriers” (priority 2008, dated 2012).
“Also recorded” adds a separate entry of the source. Like-named read-outs stand apart in the source and are kept apart here.

What was measured:
JMAR = assay: MTS cell viability assay, 72 hours; assay type: cell-based, human; conditions: 10 nM to 100 micromolar
Description: (§1) To evaluate the anticancer, specifically antiproliferative, effects of HA-cisplatin compared to standard CDDP in vitro in two human head and neck squamous cell carcinoma cell lines (JMAR and MDA-1986) a standard MTS assay was performed as per the manufacturer's specified protocol.
(§2) Once 75% confluent, cells were trypsinized (0.25% trypsin), counted and plated in 96-well microtiter plates (Costar, Cambridge, Mass., USA) (1×10^3 cells/well) in 100 μL of growth media. After an overnight attachment period, cells were exposed to varying concentration of […] for 3 days. All studies were performed in triplicate and repeated at least three times independently. After the 3-d treatment period, the number of viable cells was determined using a colorimetric Cell Proliferation assay (CellTiter96 Aqueous Nonradioactive Cell Proliferation assay; Promega, Madison Wis., USA), which measures the bioreduction of the MTS (3-[4,5-dimethylthiazol-2yl]-5-[3-carboxymethoxyphenyl]-2-[4-sulfophenyl]-2H tetrazolium) by dehydrogenase enzymes of metabolically active cells into soluble formazon product, in the presence of the electron coupling reagent PMS (phenazine methosulfate). To perform the assay, 20 μL of combined MTS/PMS solution containing 2 mg/mL MTS and 150 μM PMS in buffer (0.2 g/L KCl, 8.0 g/L NaCl, 0.2 g/L KH2PO4, 1.15 g/L, […] CaCl2-2H2O, […], MgCl2.6H2O, pH 7.35) was added to each well and then after 3 hr of incubation at 37° C. in a humidified 5% CO2 atmosphere, absorbance was measured at 490 nm in microplate reader. Triplicate wells with predetermined cell numbers were subjected to the above assay in parallel with the test samples to normalize the absorbance readings; this also provided internal confirmation that the assay was linear over the range of absorbance and cell numbers measured. Data was plotted as a function of % viability from controls (cell viability) vs. drug concentration (x-axis).

MDA-1986 = assay: MTS cell viability assay, 72 hours; assay type: cell-based, human; conditions: 10 nM to 100 micromolar
Description: as §1, §2

[1] = Long-term toxicology: urine creatinine; assay type: in vivo, Sprague-Dawley rats; conditions: 3.3 mg/kg subcutaneous, single dose
Description: Each animal was administered a single bolus dose at the beginning of the 30-day study period. […] Urine samples were centrifuged at 17,000×g for 5 mins and stored in −80° C. freezer until creatinine analysis.
Urine creatinine was analyzed using the QuantiChrom™ Creatinine Assay Kit according to the manufacturer's instructions (BioAssay Systems, Hayward, Calif.). Creatinine concentration of the sample was calculated as (ODSAMPLE 5-ODSAMPLE 1) (ODSTD 5-ODSTD 1)×[STD] (mg/dL). ODSAMPLE5 ODSAMPLE1, ODSTD5, and ODSTD1 are OD510nm values of sample and standard at 5 min and 1 min, respectively.

[2] = tested on: three aggressive human breast cancer cell lines; assay: Cell proliferation, Alamar blue assay, 72 hrs; assay type: cell-based; conditions: breast cancer cells in culture
Description: The 10% w/w conjugate was applied to cells, and 72 hrs later, cell proliferation was determined using the Alamar blue assay (Invitrogen Corp.). […] Similarly, cisplatin conjugates were applied to breast cancer cells in culture. […] This may be due release of anticancer drugs from nanocarriers into the culture media, followed by uptake as with free drug.

MDA-MB-468LN = assay: Cell proliferation over 72 hrs, resazurin blue; assay type: cell-based, human
Description: Preceding proliferation studies, cells were trypsinized and seeded into 96-well plates (5,000 cells/well). […] After 4 hrs, well fluorescence was measured (λex 560 nm, λem 590 nm) using a fluorophotometer (SpectraMax Gemini; Molecular Devices, Sunnyvale, Calif.). IC50 was determined as the midpoint between saline (positive) and cell-free (negative) controls for each plate.

MDA-MB-231 = assay: In vitro cell toxicity (DMEM, resazurin blue, 72 hrs); assay type: cell-based, human
Description: (§3) Cell lines were seeded into 96-well plates (5000 cells/well) in DMEM medium supplemented with 5% FBS and 1% penicillin/streptomycin.

MCF7 = assay: as above; assay type: cell-based, human
Description: as §3

[3] = Long-term toxicology: pathological examination (H&E) at 30 days; assay type: in vivo, Sprague-Dawley rats; conditions: for lymphoid tissue histology (H&E) / underlying tissue at injection site: 30 days post injection; for brain tissue histology (H&E) / kidney tissue histology (H&E) / liver tissue histology (H&E): 30 days post single injection
Description: Each animal was administered a single bolus dose at the beginning of the 30-day study period. […] In order to reduce the stress to animals, subjects were housed in metabolic cages for 12 hrs to collect approximately 5 ml of urine and then returned to cages with bedding until the next collection period. Urine samples were centrifuged at 17,000×g for 5 mins and stored in −80° C. freezer until creatinine analysis.
The animals were euthanized at the end of the study (30 days) and the liver, bilateral kidneys, spleen, lungs, heart, right (ipsilateral) and left (contralateral) axillary nodes, and brain were excised intact and stored in 80% alcoholic formalin solution overnight for fixation before slide mounting. Mounting using haematoxylin & eosin (H&E) staining were conducted by Veterinary Lab Resources (Kansas City, Kans.). The pathological examination was performed by a blinded board-certified veterinarian pathologist (University of Kansas Medical Center, Kansas City, Kans.).

For [PtCl(H2O)(NH3)2]OOCO-HA [HA-cisplatin], which “IC50 level compared with CDDP” value (JMAR) is on record?
The value was “no significant difference”.

What about the “IC50 level compared with CDDP” value (JMAR; listed as HA-Cisplatin) of the same substance?
The value was “very similar”.

What about the “IC50 level compared with CDDP” value (MDA-1986) of the same substance?
The value was “no significant difference”.

And the “IC50 level compared with CDDP” value (MDA-1986; listed as HA-Cisplatin)?
Its value is “very similar”.

And the urine creatinine levels [1]?
Its urine creatinine levels is “remained near pre-dosing levels”.

And the “anticancer activity compared with free cisplatin” value [2]?
The value was “not significantly different from free cisplatin”.

What about the IC50 (MDA-MB-468LN; HA carriers on a Pt-basis equivalent to cisplatin) of the same substance?
The IC50 was 10 µg/mL.

What about the IC50 (MDA-MB-468LN; Pt-basis, read-out: IC50) of the same substance?
The IC50 was 33 µM.

And the IC50 (MDA-MB-231; cisplatin basis)?
Its IC50 is 7 µg/mL.

What about the IC50 (MDA-MB-231; read-out: IC50) of the same substance?
Its IC50 is 23 µM.

What about the IC50 (MCF7; MCF-7, cisplatin basis) of the same substance?
The IC50 was 7 µg/mL.

And the IC50 (MCF7; MCF-7, read-out: IC50)?
Its IC50 is 23 µM.

And the “lymphoid tissue histology (H&E)” value ([3]; 1 mg/kg subcutaneous)?
The value was “normal findings”.

What about the “underlying tissue at injection site” value ([3]; 1 mg/kg subcutaneous) of the same substance?
The value was “normal findings”.

And the “brain tissue histology (H&E)” value ([3]; 1 mg/kg subcutaneous)?
The value was “normal findings”.

And the “kidney tissue histology (H&E)” value ([3]; 1.0 mg/kg subcutaneous)?
Its value is “normal appearance except for minimal renal tubular cell swelling and degeneration”.

What about the “liver tissue histology (H&E)” value ([3]; 1.0 mg/kg subcutaneous) of the same substance?
The value was “Very mild changes; also recorded: normal appearance”.

What about the “lymphoid tissue histology (H&E)” value ([3]; 3.3 mg/kg subcutaneous) of the same substance?
The value was “Very mild changes; also recorded: normal findings”.

What about the “underlying tissue at injection site” value ([3]; 3.3 mg/kg subcutaneous) of the same substance?
The value was “normal findings”.

What about the “brain tissue histology (H&E)” value ([3]; 3.3 mg/kg subcutaneous) of the same substance?
Its value is “normal findings”.

And the “kidney tissue histology (H&E)” value ([3]; 3.3 mg/kg subcutaneous)?
The value was “fairly normal appearance except for minor foci of tubular cell necrosis at the corticomedullary junction”.

And the “liver tissue histology (H&E)” value ([3]; 3.3 mg/kg subcutaneous)?
The value was “Mild degeneration with some sinusoidal necroses; also recorded: fairly normal appearance except for very mild degeneration”.

What about the “animals diagnosed with mild renal necrosis” value ([3]; high dose (3.3 mg/kg) subcutaneous, 30 days, of 5) of the same substance?
The value was 20%.

And the “animals with renal necrosis” value ([3]; low dose (1.0 mg/kg) subcutaneous, 30 days)?
The value was “none”.
